Assay results as given in the nanobody polyreactivity screen of Harvey et al. (2022).

Experiment: yeast display, Sf9 membrane polyspecificity reagent, FACS + sequencing; frameworks hold sequencing errors
Method in brief: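 Polyreactivity labels are assigned by the sorting gate from which each nanobody was recovered. The gates were low and high (top ~1%), set on anti-HA fluorescence for expression and streptavidin fluorescence for reagent binding. Before sorting, galactose-induced (36–48 hours) yeast display cells were stained for 1 hour at 4 °C with 10% biotinylated, detergent-solubilized Sf9 membrane reagent.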

| Sequence | polyreactivity (PSR sort gate) |
| --- | --- |
| QVQLVESGGGLVQAGGSLRLSCAASGRIFTRYAIGWYRQAPGKERELVAAITYNGGSTYYADSVKGRFTISRDNAKNTVYLQMNSLKPEDTAVYDCNAVYLSWFGLFAGFDYWGQGTQVTVSS | high polyreactivity |
| QVQLVESGGGLVQAGGSLRLSCAASGSIFSPNDMGWYRPAHGKERELVAAITSAGSTFYADSVKGRFTISRDNAKNTVYIQMNSLKPEDTAVDYCSATYISVTDYAYFPLWYGYWGQGTQVTVSS | low polyreactivity |
| RVQLQESGGGLVQAGGSLRLSCAASGTIFIRGDMGWYRQAPGKEREFVATIDTGSNTYYADSEKGRFTISRDNAKNAVSLQMICLKPGDTAVYYCVVDYQLSGRLRYWGQGTQVTLSS | low polyreactivity |
| QVQLVESGAGLVQAGGSLRLSCAASGSIFGPNAMGWYRQAPGKERELVAAISWSGASTYYADSVKGRFTISRDNAMNTVYLQMNSLKPEDTAVYYCAADYYGVSGSGYGYWGQGTQVTVSS | low polyreactivity |
| QVQLEESGGGLVQAGGSLRLSCAASGFTFVDYLMGWYRQAPGKERELVAAITRSGGSTYYADSVKGRFTISRDQAKNTVYLEMNSLKPEDTAVYYCAAEIRDYAKSYSFYWGQGTQVTVSS | high polyreactivity |
| QVQLVESGGGLVQAGGSLRLSCAASGITINYYAMGWYRQAPGKERELVATIRSGGGTYYADSVKGRFTISRDNAKNTVYLQMNSLKTEDTAVYYCASYTYPYYRYDYWGQGTQVTVSS | high polyreactivity |
| QVQLVESGGGLVQAGGSLRLSCAASGRNFSSYALGWYRQAPGKERELVAAIRYDAGSTYYADSVKGRFTISRDNAKNTVYLQMNSLKPEDTAVYYCAAGIYSSRHSPYGYWGQGTQVTVSS | high polyreactivity |
| QVQLVESGGGLVQAGGSLRLSCAASGSTFPYNAMGWYRQAPGKERELVAAITSAGGTNYADSVKGRFTISRDNAKNTVYLQMNSLKPEDTAVYYCAADGSGYYDWYYYWGQGTQVTVSS | low polyreactivity |
| QAQLQEIGGSLVQAGGGLRLSCEASGYISVGSVMGWYRQAPSKERELVASIDQGANTNYADSVKGRFTISRDNEKNNVYLQMKSLKPEDTAVYYCATETTYILNDWGQGTQVTVSS | low polyreactivity |
| QVQLVESGGGLVQAGGSLRLSCAASGRIFKDNAMGWYRQAPGKERELVATIDSGGDTNYADSVKGRFTISRDNAKNTVYLQMNSLKPEDTAVYYCNRDSRVLEGDYWGQGTQVTVSS | low polyreactivity |
| QVQLVESGGGLVQAGASLRLSCAASGITFTPYAMGWYRQAPGKERELVAAISWRGGSTYYADSVKGRFTISRDNAKNTVYLQMNSLKPEDTAVYYCAKDGRGYGRYSRYYTGDYWGQGTQVTVSS | low polyreactivity |
| QVQLVESGGGLVQAGGSLRLTCDASGSTFYPYAMGWYRQAPWKERELVAAISSRDGRTYYADSVKGRFTISRDNAKNTVYLQMNSLKPEDTAVYYCAATSFNNGHRYDYWGQGTQVTVSS | high polyreactivity |
| QVQLVESGGGLVQAGGSLRLSCVASGSIFGSYAMGWYRQAPGKERELVASISDSGGSTDYADSVKGRFTISRDNAKNTVYLQMHSLKPEDTAVYYCAADDFSGYVTEYDYWGQGTQVTVSS | low polyreactivity |
| QVQLVESGGGLVQAGGSLRLSCAASGFIFSFYAMGWYRQAPGKERELVAAITSSGATTYYADSVKGRFTISRDNAKNTVYLQMNSLKPEDTAVYYCNAVYRRDTGYYRYYYWGQGTQVTVSS | high polyreactivity |
| QVQLVESGGGLVQAGGSLRLSCAASGSTFTKNAMGWYRQAPGKERELVVVINRSGTSTYYADSVKGRFTISRDNAKNTVYLQMNSLKPEDTAVYYCATKYARTAGGGYYWGQGTQVTVSS | high polyreactivity |
| QVQLVESGGGLVQAGGSLRLSGAASGRIFWYNAMGWYRQAPGKEREVVAGITSGGRTNYADSVKGRFTISRDNAKNTVYLQMNSLKPEDTAVYYCAATHSLRMYYLGQGTQVTVSS | low polyreactivity |
| QVQLVESGGGLVQAGGSLRLICAASGSIFRRYAMGWYRQAPGKERELVARITIRGGSTYYADSVKGRFTISRDNAKNTVYLQMNSLKPEDTAVYYCNTVVPASSGGAYRRYYYLGQGTQVTVSS | high polyreactivity |
| QVQLVESGGGLVQAGGSLRLSCAASGITFRRYAMGWYRKAPGTERELVATITRGDNTYYADSVKGRFTISRDNAKNTVYLQMNSLKPEDTAVYYCAKGWPTDDYDYWGQGTQVTVSS | high polyreactivity |
| QVQLVESGGGLVQAGGSLRLSCAASGSIFEYYAMGWYRQAPGKERELVATITTRGGSTYYADSVKGRFTLSRDNAKNTVSLQMKCLKPEDTAVYYCNARAAYYGRGTLLRRNYWGQGTQVTVSS | high polyreactivity |
| QVELVDSGGGLVQAGGILRLSCPASGSTIPTNVMGWSRQAPGKERECVAAITWSVGSTYYADSVKGRFTISRDNAKNTVYLQMNSLKPEDTAVYYCTADSQVLSAPDDYWGQGTQVTVSS | low polyreactivity |
| QVQLVESGGGLVQAGGSLRLTCAASGITFRKYAMGWYRQAPGKERELVAGIRYSGSSTYYADSVKGRFTISRDNAKNTVYLQMNSLKPEDTAVYYGATGGYVWYRSVNVWTRMDYWGQGTQVTVSS | high polyreactivity |
